Measured values reported in US8198236B2, “Methods and compositions for the treatment of cancer” (Washington University, priority 2007, dated 2012).

Tests used:
LRP5 = LRP5 (Homo sapiens, UniProt O75197); assay: 125I-DKK1 binding to LRP5; details: FIG. 10B
Experimental: In order to investigate the binding of Mesd polypeptide and an Mesd oligopeptide to either LRP5 or LRP6, binding assays were performed using ^125I-Mesd or ^125I-DKK1 (FIG. 10).

LRP6 [1] = molecular target: T1, LRP6 (Homo sapiens, UniProt O75581); assay: 125I-Mesd cell surface binding to LRP6-transduced HT1080 cells
T1 construct: expressed in transfected cells; host or cells: human HT1080 cells, retroviral vector pLNCX2
Experimental: (§1) To examine whether Mesd binds with high affinity to most members of the LDLR family at the cell surface, we performed cell surface ligand binding experiments with cells stably transduced with LRP6 cDNA. Human HT1080 cells, which express undetectable levels of LRP6, were transduced with a viral vector alone (pLNCX2) or with vector containing LRP6 cDNA (Li, Y., Oncogene 23: 9129-9135, 2004) and used for ^125I-Mesd binding (FIG. 1A). ^125I-Mesd (5 nM) reached maximal binding after 2 hours incubation at 4° C. with LRP6-expressing HT1080 cells (FIG. 1A).
(§2) (A) Time course of ^125I-Mesd (5 nM) binding to LRP6-transduced HT1080 cells and the control cells. Assay was carried out for the indicated periods at 4° C. in the absence (total) or presence of 500 nM Mesd (non-specific). (B) Saturation binding of ^125I-Mesd to LRP6-transduced HT1080 cells and the control cells. Assay was carried out at indicated concentrations for 3 hours at 4° C. in the absence (total) or presence (non-specific) of 500 nM Mesd. (C) Scatchard plots of data in B. All values are the average of triple determinations with the s.d. indicated by error bars.
(§3) Cells (2×10^5) were seeded into 12-well dishes 1 day prior to assay. Ligand-binding buffer (minimal Eagle's medium containing 0.6% BSA with a different concentration of radioligand, 0.6 ml/well) was added to cell monolayers, in the absence or the presence of 500 nM unlabeled RAP or 500 nM unlabeled Mesd, followed with incubation for 0-4 hours at 4° C. Thereafter, overlying buffer containing unbound ligand was removed, and cell monolayers were washed and lysed in low-SDS lysis buffer (62.5 mM Tris-HCl pH 6.8, 0.2% SDS, 10% v/glycerol) and counted.
(§4) To analyze the Mesd sequences that are required for Mesd to bind to mature LRP6 at the cell surface with high affinity, sequences were compared between mouse Mesd and its homologs from different species. […] We thus generated two truncated Mesd mutants lacking either the N-terminal region, MESD (12-195), or both the N-terminal and C-terminal regions, Mesd (12-155) (FIG. 3A). The ability of these mutants to bind to cell surface LRP6 was then assessed.
(§5) In this example, a truncated Mesd mutant containing the last 45 amino acids of C-terminal region was generated (FIG. 3A) and its binding affinity for LRP6 was then analyzed. […] (A) Binding analyses of ^125I-Mesd and its mutant Mesd (150-195) (5 nM) to LRP6-transduced HT1080 cells and control cells. (B) Binding analyses of ^125I-Mesd and its mutant Mesd (150-195) (5 nM) to LRP6-transduced HT1080 cells. Assays were carried out for 3 hours at 4° C. in the absence or presence of 500 nM Mesd or its mutant. Values are the means of triple determinations with the s.d. indicated by error bars.
(§6) LRP6-mediated Mesd uptake and degradation was investigated in the experiments illustrated in FIG. 7. (A) LRP6-mediated ^125I-Mesd (5 nM) degradation in LRP6-transduced HT1080 cells and control cells was carried out for 4 hours at 37° C. in the absence or presence of 500 nM Mesd. (B) ^125I-Mesd (5 nM) binding to LRP6-transduced HT1080 cells and the control cells was carried out for 4 hours at 4° C. in the absence or presence of 500 nM Mesd. Values are the means of triple determinations with the s.d. indicated by error bars.

LRP6 [2] = assay: as above; design: species or system human; details: HT1080 cells transduced with vector alone
Experimental: as §1, §2, §3, §4, §5, §6

HCC1187 cells = assay: MTT assay of Wnt3a CM-stimulated growth of HCC1187 cells; assay type: cell-based, human; details: Mesd 1 μM, 24 h
Experimental: Cell growth and cell proliferation were measured by MTT assay (Promega) and BrdU incorporation using the BrdU ELISA kit (Roche Molecular Systems) according to the manufacturers' instructions. […] Breast cancer cells expressing control or LRP6 shRNA were seeded into 48-well plates. MTT-labeling reagent was added to each well 24 h later, and plates were incubated at 37° C. for 4 h. After the incubation period, the formazan crystals were dissolved in an MTT solubilization reagent and the resulting color was quantified spectrophotometrically. In some experiments, cell proliferation was measured by BrdU incorporation using the BrdU ELISA kit (Roche Molecular Systems) according to the manufacturer's instructions. Briefly, cancer cells expressing control or LRP6 shRNA were plated on 96-well plate. Cells were incubated with BrdU for 24 h, and the newly synthesized BrdU-DNA was then determined by colorimetry using an ELISA reader. All experiments were performed three times in triplicate.
In FIG. 20, * indicates p<0.05 compared to L cell CM; ** indicates p<0.01 compared to L cell CM.

LRP6 [3] = molecular target: T1, LRP6; assay: 125I-DKK1 binding to LRP6; details: 500 nM unlabeled, 125I-DKK1 5 nM, 3 hours at 4° C.
Experimental: as §3
RAP is a receptor antagonist for members of the LDLR family, and is able to inhibit the binding of most known ligands of the LDLR family members. DKK1 is an LRP6-specific ligand and antagonist. […] In these experiments, Serum-free conditioned medium was harvested from HEK293 cells transiently transfected with cDNA for human Myc-DKK1 and allowed to bind to LRP6-transduced HT1080 cells (B,C) and control cells (A) in the absence (A,B) or presence (C) of 1 μM Mesd. Cell-surface-bound Myc-tagged DKK proteins were fixed and detected by immunofluorescence staining with anti-Myc antibody. (D) DKK1 binding to cell surface LRP6 is inhibited by Mesd. Binding of 125I-DKK1 (5 nM) to LRP6-transduced HT1080 cells or the control cells was carried out for 3 hours at 4° C. in the absence (total) or presence of 500 nM RAP or 500 nM Mesd. […]

T1 sequence (O75581 20-1613): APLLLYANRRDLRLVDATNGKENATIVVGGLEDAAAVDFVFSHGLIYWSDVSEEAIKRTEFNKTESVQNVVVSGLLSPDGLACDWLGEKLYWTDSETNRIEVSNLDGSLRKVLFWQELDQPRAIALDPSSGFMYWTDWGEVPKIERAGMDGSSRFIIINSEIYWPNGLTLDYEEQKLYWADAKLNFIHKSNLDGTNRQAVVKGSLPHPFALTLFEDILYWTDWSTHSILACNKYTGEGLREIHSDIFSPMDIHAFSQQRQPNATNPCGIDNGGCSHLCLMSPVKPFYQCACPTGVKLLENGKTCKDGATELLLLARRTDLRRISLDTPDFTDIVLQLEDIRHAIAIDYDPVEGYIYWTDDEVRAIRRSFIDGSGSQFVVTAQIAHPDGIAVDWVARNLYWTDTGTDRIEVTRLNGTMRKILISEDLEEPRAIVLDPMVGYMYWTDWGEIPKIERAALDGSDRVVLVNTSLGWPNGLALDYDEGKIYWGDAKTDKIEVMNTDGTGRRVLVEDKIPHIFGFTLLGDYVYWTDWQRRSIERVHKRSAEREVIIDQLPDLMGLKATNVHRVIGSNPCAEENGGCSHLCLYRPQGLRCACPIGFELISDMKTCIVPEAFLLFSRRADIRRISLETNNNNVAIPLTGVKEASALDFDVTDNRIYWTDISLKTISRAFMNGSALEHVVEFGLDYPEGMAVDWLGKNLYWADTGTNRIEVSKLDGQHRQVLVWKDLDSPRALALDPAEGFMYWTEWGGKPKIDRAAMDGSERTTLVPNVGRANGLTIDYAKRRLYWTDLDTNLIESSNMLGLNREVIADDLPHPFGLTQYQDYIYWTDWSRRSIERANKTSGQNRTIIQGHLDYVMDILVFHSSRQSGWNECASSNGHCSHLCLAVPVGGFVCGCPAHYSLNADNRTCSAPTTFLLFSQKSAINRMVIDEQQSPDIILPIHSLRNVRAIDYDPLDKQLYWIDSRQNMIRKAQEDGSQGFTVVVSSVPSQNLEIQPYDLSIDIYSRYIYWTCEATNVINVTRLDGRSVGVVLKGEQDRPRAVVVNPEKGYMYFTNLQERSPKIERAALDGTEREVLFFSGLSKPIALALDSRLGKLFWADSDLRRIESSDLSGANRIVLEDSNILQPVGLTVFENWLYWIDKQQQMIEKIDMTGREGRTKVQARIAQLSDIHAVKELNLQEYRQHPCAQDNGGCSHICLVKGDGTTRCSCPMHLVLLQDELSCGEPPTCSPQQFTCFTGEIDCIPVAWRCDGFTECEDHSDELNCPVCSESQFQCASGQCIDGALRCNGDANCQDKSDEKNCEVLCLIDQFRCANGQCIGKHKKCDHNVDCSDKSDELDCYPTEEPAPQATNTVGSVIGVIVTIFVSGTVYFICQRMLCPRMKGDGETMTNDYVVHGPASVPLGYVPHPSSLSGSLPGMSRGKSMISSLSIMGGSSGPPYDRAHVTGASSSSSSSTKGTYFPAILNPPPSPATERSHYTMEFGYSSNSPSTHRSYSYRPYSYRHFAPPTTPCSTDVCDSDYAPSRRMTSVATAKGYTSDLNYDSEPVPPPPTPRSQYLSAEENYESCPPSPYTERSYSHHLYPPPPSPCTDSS
Chain of LRP5 (O75197 32-1615): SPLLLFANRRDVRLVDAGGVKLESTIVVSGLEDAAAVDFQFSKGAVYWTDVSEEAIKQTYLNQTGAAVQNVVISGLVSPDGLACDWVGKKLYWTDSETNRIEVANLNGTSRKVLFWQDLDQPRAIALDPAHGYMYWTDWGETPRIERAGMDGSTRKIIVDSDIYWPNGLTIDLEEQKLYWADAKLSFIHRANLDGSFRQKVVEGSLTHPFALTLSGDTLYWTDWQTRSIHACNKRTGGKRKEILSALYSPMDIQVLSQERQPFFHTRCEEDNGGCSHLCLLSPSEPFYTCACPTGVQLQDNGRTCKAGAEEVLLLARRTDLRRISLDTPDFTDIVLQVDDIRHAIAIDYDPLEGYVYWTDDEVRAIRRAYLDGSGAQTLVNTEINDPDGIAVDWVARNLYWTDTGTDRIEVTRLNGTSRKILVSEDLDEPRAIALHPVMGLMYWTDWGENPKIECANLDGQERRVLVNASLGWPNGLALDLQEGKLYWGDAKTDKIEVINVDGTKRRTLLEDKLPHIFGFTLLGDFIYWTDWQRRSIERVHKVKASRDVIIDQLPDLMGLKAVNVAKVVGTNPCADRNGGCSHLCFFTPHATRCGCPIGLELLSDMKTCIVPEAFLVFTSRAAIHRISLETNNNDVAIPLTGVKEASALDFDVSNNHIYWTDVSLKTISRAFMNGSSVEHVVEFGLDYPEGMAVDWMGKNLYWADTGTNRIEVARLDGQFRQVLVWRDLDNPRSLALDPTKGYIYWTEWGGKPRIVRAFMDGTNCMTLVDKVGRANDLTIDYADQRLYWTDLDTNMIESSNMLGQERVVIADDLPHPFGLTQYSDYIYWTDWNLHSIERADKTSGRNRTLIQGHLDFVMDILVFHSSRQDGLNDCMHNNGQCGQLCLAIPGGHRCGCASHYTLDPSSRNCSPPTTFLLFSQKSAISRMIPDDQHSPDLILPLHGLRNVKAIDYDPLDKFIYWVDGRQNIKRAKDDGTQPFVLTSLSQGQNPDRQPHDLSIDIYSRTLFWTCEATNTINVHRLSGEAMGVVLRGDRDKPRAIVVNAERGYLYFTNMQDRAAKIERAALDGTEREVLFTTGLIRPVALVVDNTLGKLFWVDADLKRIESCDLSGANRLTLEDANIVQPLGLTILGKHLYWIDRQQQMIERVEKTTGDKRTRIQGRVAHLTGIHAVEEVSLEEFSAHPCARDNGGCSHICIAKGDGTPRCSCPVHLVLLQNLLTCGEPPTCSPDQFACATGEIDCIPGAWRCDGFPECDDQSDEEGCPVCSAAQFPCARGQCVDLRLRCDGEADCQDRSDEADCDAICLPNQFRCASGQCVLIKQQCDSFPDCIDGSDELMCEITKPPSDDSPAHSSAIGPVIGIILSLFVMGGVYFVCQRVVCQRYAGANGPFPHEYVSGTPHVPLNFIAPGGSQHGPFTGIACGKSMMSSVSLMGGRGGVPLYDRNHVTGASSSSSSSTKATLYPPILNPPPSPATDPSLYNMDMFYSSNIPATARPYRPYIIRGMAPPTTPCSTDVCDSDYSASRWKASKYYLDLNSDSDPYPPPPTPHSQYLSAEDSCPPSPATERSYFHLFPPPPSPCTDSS

B1: Mesd: Recombinant full-length mouse Mesd expressed in E. coli, N-terminal polyhistidine tail, lacking the signal peptide (protein)
chain: ADTPGEATPPPRKKKDIRDYNDADMARLLEQWEKDDDIEEGDLPEHKRPSAPIDFSKLDPGKPESILKMTKKGKTLMMFVTVSGNPTEKETEEITSLWQGSLFNANYDVQRFIVGSDRAIFMLRDGSYAWEIKDFLVSQDRCAEVTLEGQMYPGKGGGSKEKNKTKPEKAKKKEGDRKPRASKEDNRAGSRREDL
modifications: left off: small tags and cut ends
notes: Recombinant full-length mouse Mesd expressed in E. coli, N-terminal polyhistidine tail, lacking the signal peptide
Question: What does the source list for B1?
Answer: Reduction in binding of 125I-DKK1 to LRP5 (LRP5): small but significant reduction; 125I-Mesd binding (LRP6 [1]; 5 nM, 4 hours at 4° C.): 1320 fmoles/mg cell protein; Concentration at which Mesd specific binding saturates (LRP6 [1]; LRP6-transduced HT1080 cells, 3 hours at 4° C.): > 6.4 nM; 125I-Mesd binding to control cells (pLNCX2) (LRP6 [2]): No significant; Effect on Wnt3a CM-increased cell growth (HCC1187 cells): abolished; Effect on increased 125I-DKK1 binding of LRP6-expressing HT1080 cells (LRP6 [3]): abolished
